The values below come from paper PMC4889959 (Nucleic Acids Research, 2016).

To fix the notation:
B1: SLX4BTB wild type, yeast two-hybrid fusion [human] / itself (parent complex)
chain: QDKHPDRGGRTLLSLGLLVADFGAMVNNPHLSDVQFQTDSGEVLYAHKFVLYARCPLLIQYVNNEGFSAVEDGVLTQRVLLGDVSTEAARTFLHYLYTADTGLPPGLSSELSSLAHRFGVSELVHLCEQVPIATDS

The variants in one test derive from B1. The experiment in a line: yeast two-hybrid β-galactosidase assay; ONPG as substrate; SLX4BTB-F708R-AD + SLX4BTB-F708R-BD; parent: 710; read off a plot.
As to chain 1 F49R, the response was roughly 3 OD420 reading.

The variants in the next test derive from B1. The test is described as follows: yeast two-hybrid β-galactosidase assay; ONPG as substrate; SLX4BTB-F681R-F708R-AD + SLX4BTB-F681R-F708R-BD; parent: 710; read off a plot.
As for chain 1 F22R, chain 1 F49R, the response is roughly 2.5 OD420 reading.
